# Source: patent US20240132578A1
# How the values were obtained:
# Assay in all cases: cell-based or functional assay
# [1] = biological target: HIV-1 Env of isolate 92BR020, clade B (HIV-1)
# [2] = biological target: HIV-1 Env of isolate 92TH021 (CRF01_AE) (HIV-1)
# [3] = biological target: HIV-1 Env of isolate 93TH305, clade B (HIV-1)
# [4] = biological target: HIV-1 Env of isolate MGRM-A-011 (clade A pseudovirus) (HIV-1)
# [5] = biological target: HIV-1 Env of isolate MGRM-Chronic-B-008, clade B (HIV-1)
# [6] = biological target: HIV-1 Env of pseudovirus MGRM-F1-008 (clade F) (HIV-1)
# [7] = biological target: HIV-1 Env of pseudovirus MGRM-F1-010 (clade F) (HIV-1)
# [8] = biological target: HIV-1 Env of pseudovirus MGRM-G-016 (HIV-1)
# [9] = biological target: HIV-1 MGRM-AE-007 Env (pseudovirus) (HIV-1)
# [10] = biological target: HIV-1 MGRM-AG-002 Env (pseudovirus) (HIV-1)
# [11] = biological target: HIV-1 MGRM-AG-012 Env (pseudovirus) (HIV-1)
# [12] = biological target: HIV-1 envelope glycoprotein (Env) of isolate LAVI_C3 (HIV-1)
# [13] = biological target: HIV-1 envelope glycoprotein (Env) of isolate MGRM-C-009 (HIV-1)
# [14] = biological target: HIV-1 envelope glycoprotein (Env) of isolate MGRM-C-017 (HIV-1)
# [15] = biological target: HIV-1 92TH021 Env (HIV-1)
# [16] = biological target: HIV-1 Env of isolate 92TH021 (subtype AE) (HIV-1)
# [17] = biological target: HIV-1 Env of isolate 92WR009 (pseudovirus) (HIV-1)
# [18] = biological target: HIV-1 Env of isolate 98CN009 (pseudovirus) (HIV-1)
# [19] = biological target: HIV-1 Env of isolate MGRM-AE-007 (subtype AE) (HIV-1)
# [20] = biological target: HIV-1 Env of isolate MGRM-AG-003 (subtype AG) (HIV-1)
# [21] = biological target: HIV-1 Env of isolate MGRM-AG-008 (subtype AG) (HIV-1)
# [22] = biological target: HIV-1 Env of isolate MGRM-C-002 (HIV-1)
# [23] = biological target: HIV-1 Env of isolate MGRM-Chronic-B-002 (HIV-1)
# [24] = biological target: HIV-1 Env of isolate MGRM-D-003 (pseudovirus) (HIV-1)
# [25] = biological target: HIV-1 Env of isolate MGRM-F1-012 (HIV-1)
# [26] = biological target: HIV-1 Env of pseudovirus isolate MGRM-C-013 (clade C) (HIV-1)
# [27] = biological target: HIV-1 JR-CSF Env E466A (HIV-1 (isolate JR-CSF)) (UniProt P20871)
# [28] = biological target: HIV-1 JR-CSF Env I414A (HIV-1 (isolate JR-CSF)) (UniProt P20871)
# [29] = biological target: HIV-1 MGRM-D-001 envelope protein (Env) on pseudovirus (HIV-1)
# [30] = biological target: HIV-1 Env of pseudovirus MGRM-D-016 (HIV-1)
# [31] = biological target: HIV-1 Env of pseudovirus MGRM-D-021 (HIV-1)
# [32] = biological target: HIV-1 Env of pseudovirus MGRM-D-022 (HIV-1)
# [33] = biological target: HIV-1 Env of pseudovirus MGRM-F1-014 (HIV-1)
# [34] = biological target: HIV-1 Env of isolate MG RM-A-006 (pseudovirus) (HIV-1)
# [35] = biological target: HIV-1 Env of isolate MG RM-A-014 (pseudovirus) (HIV-1)
# [36] = biological target: HIV-1 Env of isolate MGRM-G-027 (subtype G) (HIV-1)
# [37] = biological target: HIV-1 Env of isolate VLGCA1 (pseudovirus) (HIV-1)
# [38] = biological target: HIV-1 Env of pseudovirus isolate JR-FL (clade B) (HIV-1)
# Chain of PGT-141 (4964_G22; 4993_K13) (antibody) (VH): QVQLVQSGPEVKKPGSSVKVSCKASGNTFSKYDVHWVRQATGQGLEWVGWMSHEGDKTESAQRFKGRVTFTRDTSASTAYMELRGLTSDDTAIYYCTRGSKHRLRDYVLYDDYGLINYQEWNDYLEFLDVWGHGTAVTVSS
# Chain of PGT-141 (4964_G22; 4993_K13) (antibody) (VL): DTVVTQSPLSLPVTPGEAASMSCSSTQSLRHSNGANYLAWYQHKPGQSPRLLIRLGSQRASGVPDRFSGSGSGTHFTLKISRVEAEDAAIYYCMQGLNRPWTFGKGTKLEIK
# Chain of PGT-142 (4995_E20) (antibody) (VH): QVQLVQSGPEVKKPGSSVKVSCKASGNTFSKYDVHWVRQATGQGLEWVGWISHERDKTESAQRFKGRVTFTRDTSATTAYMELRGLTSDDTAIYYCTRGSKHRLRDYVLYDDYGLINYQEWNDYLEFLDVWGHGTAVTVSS
# Chain of PGT-144 (4970_K22) (antibody) (VH): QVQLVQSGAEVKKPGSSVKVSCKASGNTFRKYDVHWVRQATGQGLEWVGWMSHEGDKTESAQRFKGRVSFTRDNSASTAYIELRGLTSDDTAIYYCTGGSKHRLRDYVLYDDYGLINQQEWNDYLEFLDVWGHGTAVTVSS
# Chain of PGT-144 (4970_K22) (antibody) (VL): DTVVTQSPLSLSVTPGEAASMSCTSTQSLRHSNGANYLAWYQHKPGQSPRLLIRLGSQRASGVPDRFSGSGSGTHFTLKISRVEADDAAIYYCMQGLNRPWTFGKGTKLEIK
# Chain of 1443_C16 (PG16) (TCN-116) (antibody) (VH): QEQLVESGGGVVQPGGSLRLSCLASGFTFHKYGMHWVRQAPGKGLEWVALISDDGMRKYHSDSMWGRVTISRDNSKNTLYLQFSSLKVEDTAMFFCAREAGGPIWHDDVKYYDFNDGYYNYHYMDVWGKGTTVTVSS
# Chain of 1443_C16 (PG16) (TCN-116) (antibody) (VL): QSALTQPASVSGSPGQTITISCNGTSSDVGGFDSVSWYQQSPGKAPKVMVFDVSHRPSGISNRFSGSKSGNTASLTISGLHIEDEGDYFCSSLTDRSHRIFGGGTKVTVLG
# Chain of PGT-143 (4980_N08) (antibody) (VH): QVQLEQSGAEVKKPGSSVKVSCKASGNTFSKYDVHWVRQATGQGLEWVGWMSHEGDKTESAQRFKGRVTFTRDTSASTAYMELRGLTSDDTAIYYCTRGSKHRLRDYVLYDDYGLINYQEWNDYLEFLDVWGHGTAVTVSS
# Chain of PGT-143 (4980_N08) (antibody) (VL): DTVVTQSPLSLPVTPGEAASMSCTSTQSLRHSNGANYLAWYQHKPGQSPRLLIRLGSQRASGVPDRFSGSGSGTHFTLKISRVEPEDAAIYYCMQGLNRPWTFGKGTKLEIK
# Chain of PGT-145 (4995_P16) (antibody) (VH): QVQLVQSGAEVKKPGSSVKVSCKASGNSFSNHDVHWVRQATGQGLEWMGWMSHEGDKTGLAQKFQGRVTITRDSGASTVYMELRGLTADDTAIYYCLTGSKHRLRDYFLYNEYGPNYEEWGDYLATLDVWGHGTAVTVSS
# Chain of PGT-145 (4995_P16) (antibody) (VL): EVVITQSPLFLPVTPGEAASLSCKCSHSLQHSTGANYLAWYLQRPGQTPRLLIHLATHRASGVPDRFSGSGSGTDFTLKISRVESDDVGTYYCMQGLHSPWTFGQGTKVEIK
Substance,"IC50 (µg/ml), pseudovirus neutralization [1] [µg/mL]",IC90 (neutralization of pseudovirus) [2] [µg/mL],"IC50 (µg/ml), pseudovirus neutralization [3] [µg/mL]","IC50 (µg/ml), pseudovirus neutralization [4] [µg/mL]","IC50 (µg/ml), pseudovirus neutralization [5] [µg/mL]",IC50 [6] [µg/mL],IC50 [7] [µg/mL],"IC50 (µg/ml), pseudovirus neutralization [8] [µg/mL]","IC50 (µg/ml), pseudovirus neutralization [9] [µg/mL]","IC50 (µg/ml), pseudovirus neutralization [10] [µg/mL]","IC50 (µg/ml), pseudovirus neutralization [11] [µg/mL]","IC50 (µg/ml), pseudovirus neutralization [12] [µg/mL]","IC50 (µg/ml), pseudovirus neutralization [13] [µg/mL]","IC50 (µg/ml), pseudovirus neutralization [14] [µg/mL]","IC50, pseudovirus neutralization [30] [µg/mL]","IC50, pseudovirus neutralization [31] [µg/mL]","IC50, pseudovirus neutralization [32] [µg/mL]","IC50, pseudovirus neutralization [33] [µg/mL]",also measured
2F5 (antibody),> 50,18.8,7.61,> 50,> 50,1.61,14.6,16.8,0.07,0.54,0.33,> 50,> 50,> 50,,,,,
2G12 (antibody),4.84,> 50,0.55,> 50,0.55,> 50,,> 50,> 50,0.54,1.94,> 50,> 50,> 50,,,,,
4E10 (antibody),> 50,23.5,12.3,2.88,16.7,2.75,3.69,1.02,0.45,0.8,0.86,2.85,0.56,1.47,,,,,
1443_C16 (PG16) (TCN-116) (antibody),> 50,23.4,19.3,0.24,0.73,> 50,0.01,11.3,0.04,0.03,25.1,9.55,> 50,1.8,,,,,
1495_C14 (PGC14) (antibody),4,,6,> 50,> 50,> 50,> 50,> 50,> 50,> 50,> 50,12,> 50,> 50,,,,,
5147_N06 (PGT-130) (antibody),,,,,,,,,,,,,,,,,,,"IC50, pseudovirus neutralization [15]: 0.0082 µg/mL; IC50, pseudovirus neutralization [16]: 0.009 µg/mL; IC50 (µg/mL), pseudovirus neutralization [17]: 1.27 µg/mL; IC50 (µg/mL), pseudovirus neutralization [18]: 0.136 µg/mL; IC50, pseudovirus neutralization [19]: 0.083 µg/mL; IC50, pseudovirus neutralization [20]: 0.041 µg/mL; IC50, pseudovirus neutralization [21]: > 50 µg/mL; IC50 (µg/mL), pseudovirus neutralization [22]: > 50 µg/mL; IC50 (µg/mL), pseudovirus neutralization [23]: > 50 µg/mL; IC50 (µg/mL), pseudovirus neutralization [24]: 0.651 µg/mL; IC50 (µg/mL), pseudovirus neutralization [25]: > 50 µg/mL; IC50, pseudovirus neutralization [26]: > 50 µg/mL; Fold IC50 increase relative to wild-type (pseudovirus neutralization) [27]: 1.7 fold; Fold IC50 increase relative to wild-type (pseudovirus neutralization) [28]: 0.7 fold; IC50 (ug/mL), pseudovirus neutralization [29]: > 10 µg/mL"
5343_B08 (PGT-135) (antibody),,,,,,,,,,,,,,,,,,,"IC50, pseudovirus neutralization [16]: > 50 µg/mL; IC50 (µg/mL), pseudovirus neutralization [17]: > 50 µg/mL; IC50 (µg/mL), pseudovirus neutralization [18]: 0.071 µg/mL; IC50, pseudovirus neutralization [19]: > 50 µg/mL; IC50, pseudovirus neutralization [20]: > 50 µg/mL; IC50, pseudovirus neutralization [21]: > 50 µg/mL; IC50 (µg/mL), pseudovirus neutralization [22]: > 50 µg/mL; IC50 (µg/mL), pseudovirus neutralization [23]: > 50 µg/mL; IC50 (µg/mL), pseudovirus neutralization [24]: > 50 µg/mL; IC50 (µg/mL), pseudovirus neutralization [25]: 0.01 µg/mL; IC50, pseudovirus neutralization [26]: > 50 µg/mL; Fold IC50 increase relative to wild-type (pseudovirus neutralization) [27]: 0.5 fold; Fold IC50 increase relative to wild-type (pseudovirus neutralization) [28]: 1.2 fold; IC50 (ug/mL), pseudovirus neutralization [29]: > 10 µg/mL"
PGT-141 (4964_G22; 4993_K13) (antibody),,,,,,,,,,,,,,,> 50,> 50,> 50,0.001,
PGT-142 (4995_E20) (antibody),,,,,,,,,,,,,,,> 50,> 50,> 50,0.001,
PGT-143 (4980_N08) (antibody),,,,,,,,,,,,,,,> 50,> 50,> 50,0.001,
PGT-144 (4970_K22) (antibody),,,,,,,,,,,,,,,> 50,> 50,> 50,0.014,
PGT-145 (4995_P16) (antibody),,,,,,,,,,,,,,,> 50,> 50,34.3,0.009,
VRC01 (antibody),,,,,,,,,,,,,,,0.452,33.4,> 50,0.056,"IC50 (µg/mL), single-round pseudovirus neutralization [34]: 0.521 µg/mL; IC50 (µg/mL), single-round pseudovirus neutralization [35]: 0.135 µg/mL; IC50 (µg/mL), pseudovirus neutralization [36]: 0.36 µg/mL; IC50 (µg/mL), single-round pseudovirus neutralization [37]: 0.163 µg/mL; IC50, pseudovirus neutralization [38]: 0.034 µg/mL"
b12 (antibody),> 50,> 50,4.17,4.01,2.82,> 50,> 50,> 50,> 50,0.89,10.4,0.94,> 50,> 50,,,,,
